The source of these data is patent US20240101702A1 (PRECISION BIOLOGICS, published 2024).

The target of the test is T1, CEACAM8 (human, UniProt P31997 35-320, limits assumed).
T1 sequence (looked up): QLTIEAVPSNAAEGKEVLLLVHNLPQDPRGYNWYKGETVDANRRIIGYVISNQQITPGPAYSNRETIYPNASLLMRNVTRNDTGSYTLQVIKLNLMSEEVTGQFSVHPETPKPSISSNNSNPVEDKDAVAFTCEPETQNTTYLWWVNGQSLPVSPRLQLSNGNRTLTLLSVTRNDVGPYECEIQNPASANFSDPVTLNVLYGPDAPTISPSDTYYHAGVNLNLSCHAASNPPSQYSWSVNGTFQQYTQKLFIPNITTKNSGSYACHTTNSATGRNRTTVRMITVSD
Nature of the test: in vitro assays using human tumor cell lines (method not detailed).

B1: NEO-201 humanized IgG1 monoclonal antibody (antibody, V domains shown)
VH: QVQLVQSGAEVKKPGASVKVSCKASGYTFTDYAMHWVRQAPGQRLEWMGLISTYSGDTKYNQNFQGRVTMTVDKSASTAYMELSSLRSEDTAVYYCARGDYSGSRYWFAYWGQGTLVTVSS
VL: DIQMTQSPSSLSASVGDRVTITCQASENIYGALNWYQRKPGKSPKLLIYGASNLATGMPSRFSGSGSGTDYTFTISSLQPEDIATYYCQQVLSSPYTFGGGTKLEIKR
notes: also called h16C3; H16C3-Abb*
Take B1: the binding result is “no binding”.
